From the supplement of paper PMC10065799, “High-throughput profiling of sequence recognition by tyrosine kinases and SH2 domains using bacterial peptide display” (eLife, 2023)

What was measured:
AncSZ = assay: phosphorylation enrichment, bacterial display (enrichment ratio); higher = better substrate or ligand; peptides without Tyr show the background
EPHB1 = EPHB1 (UniProt P54762); assay: as above
EPHB2 = EPHB2 (UniProt P29323); assay: as above
FGFR1 = FGFR1 (UniProt P11362); assay: as above
FGFR3 = FGFR3 (UniProt P22607); assay: as above
Fer (mouse) = assay: as above
Fes = Fes (UniProt P07332); assay: as above
Fyn = Fyn (UniProt P06241); assay: as above
Hck = Hck (UniProt P08631); assay: as above
Jak2 = Jak2 (UniProt O60674); assay: as above
MERTK = MERTK (UniProt Q12866); assay: as above
c-Abl (mouse) = assay: as above
c-Src = assay: as above
Grb2 SH2 = Grb2 SH2 (UniProt P62993); assay: SH2 binding enrichment of the phosphorylated peptide, bacterial display (enrichment ratio); higher = better substrate or ligand; peptides without Tyr show the background
SHP2-C SH2 = assay: as above
c-Src SH2 = assay: as above
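Wherever SH2 binding enrichment of the phosphorylated peptide, bacterial display is given: peptide library displayed on the E. coli surface as eCPX fusions, selected cells deep-sequenced, score is each peptide's frequency after selection divided by its frequency in the input.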
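Wherever phosphorylation enrichment, bacterial display is given: 11-residue human phosphosite peptides and single-mutation variants displayed on the E. coli surface, counted by deep sequencing, each peptide's frequency after selection divided by its frequency in the unselected input library; frequency after pTyr selection over input frequency; kinase dosed for 20-30% of maximal phosphorylation in three min.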

Sequence of MERTK (Q12866 whole entry, looked up): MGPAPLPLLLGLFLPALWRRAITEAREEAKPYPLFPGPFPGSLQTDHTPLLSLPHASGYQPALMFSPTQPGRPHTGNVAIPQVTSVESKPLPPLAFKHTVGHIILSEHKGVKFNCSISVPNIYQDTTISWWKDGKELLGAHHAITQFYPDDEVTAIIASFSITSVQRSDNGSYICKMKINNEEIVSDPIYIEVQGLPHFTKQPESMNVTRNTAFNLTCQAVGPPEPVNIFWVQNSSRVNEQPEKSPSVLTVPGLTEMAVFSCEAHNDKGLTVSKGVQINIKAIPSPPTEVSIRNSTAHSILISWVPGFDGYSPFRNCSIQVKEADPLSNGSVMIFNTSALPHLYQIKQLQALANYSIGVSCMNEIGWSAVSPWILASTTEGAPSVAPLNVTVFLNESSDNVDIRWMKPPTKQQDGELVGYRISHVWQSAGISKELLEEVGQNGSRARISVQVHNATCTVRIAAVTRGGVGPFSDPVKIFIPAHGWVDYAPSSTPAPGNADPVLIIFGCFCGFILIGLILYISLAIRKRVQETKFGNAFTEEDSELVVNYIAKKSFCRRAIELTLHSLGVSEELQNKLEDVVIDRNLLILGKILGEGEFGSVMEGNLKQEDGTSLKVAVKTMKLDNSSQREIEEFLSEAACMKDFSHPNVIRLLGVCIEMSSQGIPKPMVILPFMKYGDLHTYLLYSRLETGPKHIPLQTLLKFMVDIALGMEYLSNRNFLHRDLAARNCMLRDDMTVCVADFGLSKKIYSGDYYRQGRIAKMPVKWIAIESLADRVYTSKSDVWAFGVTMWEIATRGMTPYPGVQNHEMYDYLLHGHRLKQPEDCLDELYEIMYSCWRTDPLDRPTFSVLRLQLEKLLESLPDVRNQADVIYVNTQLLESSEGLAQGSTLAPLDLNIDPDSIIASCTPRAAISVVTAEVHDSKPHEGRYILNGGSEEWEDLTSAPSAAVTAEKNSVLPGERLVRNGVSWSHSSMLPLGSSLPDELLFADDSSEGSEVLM
Sequence of Fyn (P06241 whole entry, looked up): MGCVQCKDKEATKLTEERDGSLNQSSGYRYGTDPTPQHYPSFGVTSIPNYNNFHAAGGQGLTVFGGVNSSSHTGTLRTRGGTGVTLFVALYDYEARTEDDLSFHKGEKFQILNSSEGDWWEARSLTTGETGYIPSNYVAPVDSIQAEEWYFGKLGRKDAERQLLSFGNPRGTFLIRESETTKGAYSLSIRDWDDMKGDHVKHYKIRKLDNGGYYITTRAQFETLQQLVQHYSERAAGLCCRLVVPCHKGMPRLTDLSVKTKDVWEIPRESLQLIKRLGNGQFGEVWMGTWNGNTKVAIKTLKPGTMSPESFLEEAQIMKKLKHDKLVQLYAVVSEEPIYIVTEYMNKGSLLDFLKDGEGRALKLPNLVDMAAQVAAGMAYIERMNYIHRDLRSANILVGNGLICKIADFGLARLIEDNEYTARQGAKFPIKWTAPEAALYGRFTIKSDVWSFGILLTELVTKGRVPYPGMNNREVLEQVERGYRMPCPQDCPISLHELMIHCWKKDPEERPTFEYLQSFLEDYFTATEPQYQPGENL
Sequence of EPHB2 (P29323 whole entry, looked up): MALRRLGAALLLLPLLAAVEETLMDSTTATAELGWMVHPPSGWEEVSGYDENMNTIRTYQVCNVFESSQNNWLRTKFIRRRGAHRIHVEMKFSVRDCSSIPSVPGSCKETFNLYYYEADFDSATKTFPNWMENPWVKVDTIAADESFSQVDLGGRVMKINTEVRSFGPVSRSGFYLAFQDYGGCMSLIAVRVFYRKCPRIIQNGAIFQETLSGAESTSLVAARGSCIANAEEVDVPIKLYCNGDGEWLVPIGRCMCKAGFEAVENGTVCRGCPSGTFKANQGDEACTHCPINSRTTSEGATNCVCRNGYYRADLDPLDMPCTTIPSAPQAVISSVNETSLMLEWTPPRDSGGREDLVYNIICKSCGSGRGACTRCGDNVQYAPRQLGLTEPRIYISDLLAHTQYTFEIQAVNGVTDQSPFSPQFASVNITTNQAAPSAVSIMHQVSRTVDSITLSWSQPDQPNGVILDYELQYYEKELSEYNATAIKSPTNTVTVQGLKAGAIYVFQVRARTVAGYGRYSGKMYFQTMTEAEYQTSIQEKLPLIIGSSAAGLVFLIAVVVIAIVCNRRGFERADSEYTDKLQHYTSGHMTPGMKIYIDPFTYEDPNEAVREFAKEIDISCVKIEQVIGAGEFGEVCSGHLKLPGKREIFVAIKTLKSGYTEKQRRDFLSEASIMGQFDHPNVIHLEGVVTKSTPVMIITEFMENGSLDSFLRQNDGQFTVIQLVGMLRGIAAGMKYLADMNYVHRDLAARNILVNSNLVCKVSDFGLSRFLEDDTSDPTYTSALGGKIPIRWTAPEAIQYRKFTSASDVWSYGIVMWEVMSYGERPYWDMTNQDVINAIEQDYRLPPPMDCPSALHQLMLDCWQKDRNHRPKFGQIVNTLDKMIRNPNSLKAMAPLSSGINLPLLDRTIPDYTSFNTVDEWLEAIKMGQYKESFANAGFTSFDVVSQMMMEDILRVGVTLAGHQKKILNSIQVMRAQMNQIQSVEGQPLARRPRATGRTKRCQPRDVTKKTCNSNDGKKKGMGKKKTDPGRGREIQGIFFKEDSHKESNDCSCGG
Sequence of FGFR3 (P22607 whole entry, looked up): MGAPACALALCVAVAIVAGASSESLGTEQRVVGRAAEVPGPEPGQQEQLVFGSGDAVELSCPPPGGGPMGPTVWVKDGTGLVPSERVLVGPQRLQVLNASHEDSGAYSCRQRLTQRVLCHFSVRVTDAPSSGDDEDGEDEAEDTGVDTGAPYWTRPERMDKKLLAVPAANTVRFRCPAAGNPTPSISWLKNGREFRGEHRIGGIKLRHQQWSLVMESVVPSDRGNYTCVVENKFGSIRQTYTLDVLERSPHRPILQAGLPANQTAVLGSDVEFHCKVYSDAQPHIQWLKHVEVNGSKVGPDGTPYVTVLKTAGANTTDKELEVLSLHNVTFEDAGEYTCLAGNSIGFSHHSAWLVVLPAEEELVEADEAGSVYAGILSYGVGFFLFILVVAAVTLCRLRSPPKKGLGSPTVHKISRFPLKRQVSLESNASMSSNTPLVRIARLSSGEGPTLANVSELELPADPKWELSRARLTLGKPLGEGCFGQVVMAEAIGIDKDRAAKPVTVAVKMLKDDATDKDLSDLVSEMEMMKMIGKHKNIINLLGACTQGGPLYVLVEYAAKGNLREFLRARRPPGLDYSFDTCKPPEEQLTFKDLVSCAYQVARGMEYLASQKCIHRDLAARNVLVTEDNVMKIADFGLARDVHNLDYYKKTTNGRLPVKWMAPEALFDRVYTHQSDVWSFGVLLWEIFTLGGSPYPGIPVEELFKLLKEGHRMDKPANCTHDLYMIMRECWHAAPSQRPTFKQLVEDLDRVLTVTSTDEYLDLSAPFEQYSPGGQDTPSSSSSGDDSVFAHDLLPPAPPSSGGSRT
Sequence of Jak2 (O60674 whole entry, looked up): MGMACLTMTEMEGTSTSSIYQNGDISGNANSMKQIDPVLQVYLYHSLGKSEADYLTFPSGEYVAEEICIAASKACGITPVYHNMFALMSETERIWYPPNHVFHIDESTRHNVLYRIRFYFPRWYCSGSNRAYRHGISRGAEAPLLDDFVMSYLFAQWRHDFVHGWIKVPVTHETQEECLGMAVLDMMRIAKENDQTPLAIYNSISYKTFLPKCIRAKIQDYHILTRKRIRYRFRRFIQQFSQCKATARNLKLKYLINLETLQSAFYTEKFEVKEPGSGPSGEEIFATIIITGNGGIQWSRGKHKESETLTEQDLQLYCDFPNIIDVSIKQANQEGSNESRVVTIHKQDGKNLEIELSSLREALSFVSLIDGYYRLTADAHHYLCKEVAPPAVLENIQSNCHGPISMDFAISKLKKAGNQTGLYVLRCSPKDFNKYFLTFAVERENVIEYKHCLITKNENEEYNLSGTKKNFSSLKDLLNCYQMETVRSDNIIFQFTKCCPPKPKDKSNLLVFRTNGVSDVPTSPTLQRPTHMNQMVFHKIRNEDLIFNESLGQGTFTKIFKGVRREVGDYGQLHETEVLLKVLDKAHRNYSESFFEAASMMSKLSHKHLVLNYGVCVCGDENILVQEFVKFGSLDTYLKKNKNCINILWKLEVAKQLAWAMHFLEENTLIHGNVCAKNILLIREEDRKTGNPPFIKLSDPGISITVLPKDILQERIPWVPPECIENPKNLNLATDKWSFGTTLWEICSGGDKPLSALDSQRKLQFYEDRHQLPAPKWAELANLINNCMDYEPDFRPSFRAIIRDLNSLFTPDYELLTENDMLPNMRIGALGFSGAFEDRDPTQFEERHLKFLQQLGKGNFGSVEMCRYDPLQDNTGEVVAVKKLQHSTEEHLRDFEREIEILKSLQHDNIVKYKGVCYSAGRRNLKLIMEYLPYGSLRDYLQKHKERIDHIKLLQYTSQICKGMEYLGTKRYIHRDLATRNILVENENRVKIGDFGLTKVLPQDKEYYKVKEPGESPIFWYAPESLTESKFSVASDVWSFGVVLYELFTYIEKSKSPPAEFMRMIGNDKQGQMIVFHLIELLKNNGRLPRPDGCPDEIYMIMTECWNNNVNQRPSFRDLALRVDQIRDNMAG
Sequence of Hck (P08631 whole entry, looked up): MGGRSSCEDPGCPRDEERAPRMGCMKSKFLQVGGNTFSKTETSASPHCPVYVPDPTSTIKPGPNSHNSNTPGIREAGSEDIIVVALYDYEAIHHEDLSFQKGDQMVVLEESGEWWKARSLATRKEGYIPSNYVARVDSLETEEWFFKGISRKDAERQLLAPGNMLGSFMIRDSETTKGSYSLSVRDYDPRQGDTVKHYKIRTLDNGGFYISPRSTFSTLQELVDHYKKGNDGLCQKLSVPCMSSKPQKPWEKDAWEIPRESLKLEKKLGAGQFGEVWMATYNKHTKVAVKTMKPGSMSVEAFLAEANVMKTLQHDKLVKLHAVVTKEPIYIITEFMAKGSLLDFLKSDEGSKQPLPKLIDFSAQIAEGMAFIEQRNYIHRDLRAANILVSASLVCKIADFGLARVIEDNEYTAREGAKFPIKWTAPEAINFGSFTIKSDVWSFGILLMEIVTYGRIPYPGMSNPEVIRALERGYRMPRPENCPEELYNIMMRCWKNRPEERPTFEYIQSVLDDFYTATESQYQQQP

Row | SH2 binding enrichment (Grb2 SH2) | SH2 binding enrichment (SHP2-C SH2) | SH2 binding enrichment (c-Src SH2) | Sequence | phosphorylation enrichment (AncSZ) | phosphorylation enrichment (EPHB1) | phosphorylation enrichment (EPHB2) | phosphorylation enrichment (FGFR1) | phosphorylation enrichment (FGFR3) | phosphorylation enrichment (Fer (mouse)) | phosphorylation enrichment (Fes) | phosphorylation enrichment (Fyn) | phosphorylation enrichment (Hck) | phosphorylation enrichment (Jak2) | phosphorylation enrichment (MERTK) | phosphorylation enrichment (c-Abl (mouse)) | phosphorylation enrichment (c-Src)
1 | 0.652 | 0.511 | 0.351 | VNLVLHLSIAK [FBXO15_Y496_Y496H] | 1.15 | 0.583 | 0.609 | 0.476 | 0.85 | 0.799 | 1.36 | 0.492 | 0.588 | 1.36 | 0.391 | 0.88 | 0.446
2 | 2.03 | 0.875 | 0.572 | VQSASYLNDCL [MCM3AP_Y864_A867D] | 0.788 | 0.536 | 0.602 | 0.757 | 0.712 | 0.487 | 0.97 | 0.448 | 0.502 | 0.798 | 0.447 | 0.693 | 0.422
3 | 1.63 | 0.952 | 1.93 | VQVAYYTVMMN [SPATA17_Y84_M86V] | 1.79 | 2.88 | 1.47 | 5.77 | 4.41 | 1.97 | 1.71 | 1.7 | 1.69 | 3.06 | 4.41 | 1.01 | 2.03
4 | 2.04 | 1.77 | 1.44 | VRFVDYVLFRS [FAM189B_Y361_S358F] | 1 | 2.13 | 0.919 | 2.27 | 1.65 | 0.458 | 1.1 | 0.542 | 0.499 | 1.01 | 0.461 | 0.764 | 0.477
5 | 0.736 | 0.513 | 0.427 | VRQQVYKKVEE [HADHA_Y283] | 0.617 | 0.378 | 0.411 | 0.344 | 0.536 | 0.331 | 0.716 | 0.44 | 0.387 | 0.639 | 0.346 | 0.446 | 0.397
6 | 0.706 | 0.557 | 0.488 | VRRRSYSAGNA [KANK1_Y324_K321R] | 0.567 | 0.404 | 0.603 | 0.549 | 0.742 | 0.664 | 0.49 | 0.504 | 0.516 | 0.471 | 0.509 | 0.613 | 0.58
7 | 0.872 | 1.07 | 2.06 | VSKGGYFSVNL [C3orf33_Y164] | 0.875 | 0.556 | 0.672 | 0.428 | 0.599 | 0.423 | 0.972 | 0.485 | 0.483 | 1.08 | 0.418 | 0.682 | 0.44
8 | 0.783 | 0.847 | 0.452 | VTDGKYAFKPK [GTF2E2_Y137_I133T] | 0.491 | 0.299 | 0.262 | 0.411 | 0.419 | 0.31 | 0.64 | 0.355 | 0.459 | 0.521 | 0.361 | 0.575 | 0.361
9 | 0.96 | 0.635 | 1.09 | VVEFGYEFFAK [PPP1CB_Y254_D252Y_YF] | 1.52 | 0.583 | 0.52 | 0.558 | 0.829 | 0.553 | 1.26 | 0.573 | 0.559 | 1.41 | 0.488 | 0.965 | 0.503
10 | 0.747 | 0.786 | 0.497 | VVLEDYLDIKN [CLCNKB_Y138] | 1.02 | 0.499 | 0.671 | 0.668 | 0.608 | 0.391 | 1.2 | 0.534 | 0.434 | 1.07 | 0.464 | 0.576 | 0.421
11 | 0.724 | 0.863 | 1.17 | VVLGSYDRLRV [IFT172_Y260] | 0.584 | 0.442 | 0.451 | 0.45 | 0.582 | 0.45 | 0.75 | 0.404 | 1.11 | 0.546 | 0.341 | 0.452 | 0.405
12 | 1.11 | 1.23 | 0.652 | VVQGIYGYHHH [UFSP2_Y285_Y290H] | 0.67 | 0.857 | 2.92 | 0.541 | 0.488 | 13.8 | 0.758 | 11.2 | 10.7 | 0.555 | 10.3 | 5.2 | 9.1
13 | 0.999 | 0.984 | 0.685 | VVTFSYKPAGN [RBL2_Y544_P547A] | 0.754 | 0.418 | 0.424 | 0.399 | 0.705 | 0.378 | 0.83 | 0.395 | 0.378 | 0.643 | 0.367 | 0.605 | 0.397
14 | 0.699 | 0.555 | 0.506 | VYAANYYKLLG [ROR2_Y645_D644N] | 0.779 | 3.1 | 2.04 | 7.46 | 5.33 | 0.469 | 1.11 | 1.28 | 1.76 | 3.19 | 5.56 | 1.23 | 1.18
15 | 1.34 | 1.06 | 2.26 | VYYDLYGGEKF [PTPN11_Y66_D61V] | 2.05 | 4.34 | 7.34 | 15 | 12.8 | 2.99 | 1.13 | 5.88 | 6.07 | 2.2 | 8.55 | 0.918 | 5.53
